Measurements published in the supplement of paper PMC9116672.
± gives the standard deviation of the averaged measurements or the uncertainty stated by the source.

Columns and labels:
[1] = duplex formation entropy ΔS (Van't Hoff fit of HRM Tm); higher = smaller entropy loss on duplex formation; settings: temperature for dG: 50 °C, NaCl: 500 mM (unadjusted)
Description: (§1)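 Duplex of the listed DNA strand with its complement, in 1x NNE buffer (500 mM NaCl, pH 7.0) with 1x EvaGreen. ΔH and ΔS come from a Van't Hoff linear fit of 1/Tm against ln(CT/4) over 1-20 uM, using HRM Tm values.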

[2] = duplex formation enthalpy ΔH (Van't Hoff fit of HRM Tm); higher = less exothermic duplex formation; settings: temperature for dG: 50 °C, NaCl: 500 mM (unadjusted)
Description: as §1

[3] = duplex melting temperature (HRM, EvaGreen); higher = more stable duplex
Description: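 Listed DNA strand annealed 1:1 with its complementary strand (95 °C 5 min, 0.1 °C/s to 20 °C). Melted in 1x NNE buffer (500 mM NaCl, 10 mM Na2HPO4, 1 mM EDTA, pH 7.0) with 1x EvaGreen on a LightCycler96 (37 to 97 °C, 0.1 °C/s). Tm is the peak of -dF/dT at the stated total duplex concentration; 4 replicates are averaged. PS oligos are non-stereospecific (Rp/Sp mixtures).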

[4] = duplex formation free energy ΔG50 (Van't Hoff fit of HRM Tm); higher = less stable duplex; settings: temperature for dG: 50 °C, NaCl: 500 mM (unadjusted)
Description: as §1

[5] = backbone: PO-PO (both strands phosphodiester DNA)
[6] = backbone: PS-PO (listed strand fully phosphorothioate, complement phosphodiester)
[7] = backbone: PS-PS (both strands fully phosphorothioate)
[8] = duplex concentration 1 µM, backbone: PS-PO (listed strand fully phosphorothioate, complement phosphodiester)
[9] = duplex concentration 1 µM, backbone: PS-PS (both strands fully phosphorothioate)
[10] = duplex concentration 2.5 µM, backbone: PO-PO (both strands phosphodiester DNA)
[11] = duplex concentration 2.5 µM, backbone: PS-PO (listed strand fully phosphorothioate, complement phosphodiester)
[12] = duplex concentration 2.5 µM, backbone: PS-PS (both strands fully phosphorothioate)
[13] = duplex concentration 5 µM, backbone: PO-PO (both strands phosphodiester DNA)
[14] = duplex concentration 5 µM, backbone: PS-PO (listed strand fully phosphorothioate, complement phosphodiester)
[15] = duplex concentration 5 µM, backbone: PS-PS (both strands fully phosphorothioate)
[16] = duplex concentration 7.5 µM, backbone: PO-PO (both strands phosphodiester DNA)
[17] = duplex concentration 7.5 µM, backbone: PS-PO (listed strand fully phosphorothioate, complement phosphodiester)
[18] = duplex concentration 7.5 µM, backbone: PS-PS (both strands fully phosphorothioate)
[19] = duplex concentration 10 µM, backbone: PO-PO (both strands phosphodiester DNA)
[20] = duplex concentration 10 µM, backbone: PS-PO (listed strand fully phosphorothioate, complement phosphodiester)
[21] = duplex concentration 10 µM, backbone: PS-PS (both strands fully phosphorothioate)
[22] = duplex concentration 15 µM, backbone: PO-PO (both strands phosphodiester DNA)
[23] = duplex concentration 15 µM, backbone: PS-PO (listed strand fully phosphorothioate, complement phosphodiester)
[24] = duplex concentration 15 µM, backbone: PS-PS (both strands fully phosphorothioate)
[25] = duplex concentration 20 µM, backbone: PO-PO (both strands phosphodiester DNA)
[26] = duplex concentration 20 µM, backbone: PS-PO (listed strand fully phosphorothioate, complement phosphodiester)
[27] = duplex concentration 20 µM, backbone: PS-PS (both strands fully phosphorothioate)

CGTGCAGCACTACTTG
duplex formation entropy ΔS [1, 5]: -181 ± 7.5 cal/mol/K | duplex formation entropy ΔS [1, 6]: -186 ± 5 cal/mol/K | duplex formation entropy ΔS [1, 7]: -179 ± 11 cal/mol/K | duplex formation enthalpy ΔH [2, 5]: -71.3 ± 2.6 kcal/mol | duplex formation enthalpy ΔH [2, 6]: -71.3 ± 1.7 kcal/mol | duplex formation enthalpy ΔH [2, 7]: -67.6 ± 3.5 kcal/mol | duplex melting temperature [3, 8]: 56.81 ± 0.29 °C | duplex melting temperature [3, 9]: 50.09 ± 0.18 °C | duplex melting temperature [3, 10]: 67.58 ± 0.38 °C | duplex melting temperature [3, 11]: 60.02 ± 0.13 °C | duplex melting temperature [3, 12]: 53.82 ± 0.069 °C | duplex melting temperature [3, 13]: 69.83 ± 0.28 °C | duplex melting temperature [3, 14]: 62.35 ± 0.23 °C | duplex melting temperature [3, 15]: 56.17 ± 0.085 °C | duplex melting temperature [3, 16]: 71.17 ± 0.15 °C | duplex melting temperature [3, 17]: 63.49 ± 0.13 °C | duplex melting temperature [3, 18]: 57.1 ± 0.12 °C | duplex melting temperature [3, 19]: 72.2 ± 0.18 °C | duplex melting temperature [3, 20]: 64.33 ± 0.093 °C | duplex melting temperature [3, 21]: 57.92 ± 0.08 °C | duplex melting temperature [3, 22]: 73.4 ± 0.13 °C | duplex melting temperature [3, 23]: 65.6 ± 0.099 °C | duplex melting temperature [3, 24]: 59.07 ± 0.11 °C | duplex melting temperature [3, 25]: 74.39 ± 0.17 °C | duplex melting temperature [3, 26]: 66.47 ± 0.25 °C | duplex melting temperature [3, 27]: 59.74 ± 0.13 °C | duplex formation free energy ΔG50 [4, 5]: -12.8 ± 0.17 kcal/mol | duplex formation free energy ΔG50 [4, 6]: -11.31 ± 0.067 kcal/mol | duplex formation free energy ΔG50 [4, 7]: -9.892 ± 0.075 kcal/mol

GCAGGAGCCGCGACCTG
duplex formation entropy ΔS [1, 5]: -257 ± 15 cal/mol/K | duplex formation entropy ΔS [1, 6]: -197 ± 5.2 cal/mol/K | duplex formation entropy ΔS [1, 7]: -212 ± 5.6 cal/mol/K | duplex formation enthalpy ΔH [2, 5]: -100 ± 5.4 kcal/mol | duplex formation enthalpy ΔH [2, 6]: -77.6 ± 1.8 kcal/mol | duplex formation enthalpy ΔH [2, 7]: -81.2 ± 1.9 kcal/mol | duplex melting temperature [3, 8]: 68.45 ± 0.49 °C | duplex melting temperature [3, 9]: 62.56 ± 0.17 °C | duplex melting temperature [3, 10]: 78.12 ± 0.35 °C | duplex melting temperature [3, 11]: 71.31 ± 0.39 °C | duplex melting temperature [3, 12]: 65.18 ± 0.082 °C | duplex melting temperature [3, 13]: 79.75 ± 0.071 °C | duplex melting temperature [3, 14]: 73.48 ± 0.49 °C | duplex melting temperature [3, 15]: 66.99 ± 0.15 °C | duplex melting temperature [3, 16]: 80.79 ± 0.2 °C | duplex melting temperature [3, 17]: 74.78 ± 0.33 °C | duplex melting temperature [3, 18]: 68.28 ± 0.17 °C | duplex melting temperature [3, 19]: 81.76 ± 0.16 °C | duplex melting temperature [3, 20]: 75.68 ± 0.15 °C | duplex melting temperature [3, 21]: 69.26 ± 0.061 °C | duplex melting temperature [3, 22]: 82.48 ± 0.27 °C | duplex melting temperature [3, 23]: 76.9 ± 0.33 °C | duplex melting temperature [3, 24]: 70.16 ± 0.069 °C | duplex melting temperature [3, 25]: 83.26 ± 0.12 °C | duplex melting temperature [3, 26]: 77.68 ± 0.29 °C | duplex melting temperature [3, 27]: 71.01 ± 0.16 °C | duplex formation free energy ΔG50 [4, 5]: -17.2 ± 0.47 kcal/mol | duplex formation free energy ΔG50 [4, 6]: -13.98 ± 0.13 kcal/mol | duplex formation free energy ΔG50 [4, 7]: -12.81 ± 0.099 kcal/mol

CGACATGTATGGCACAG
duplex formation entropy ΔS [1, 5]: -198 ± 5.8 cal/mol/K | duplex formation entropy ΔS [1, 6]: -224 ± 3.8 cal/mol/K | duplex formation entropy ΔS [1, 7]: -214 ± 8.2 cal/mol/K | duplex formation enthalpy ΔH [2, 5]: -77.2 ± 2 kcal/mol | duplex formation enthalpy ΔH [2, 6]: -84.2 ± 1.3 kcal/mol | duplex formation enthalpy ΔH [2, 7]: -79.1 ± 2.7 kcal/mol | duplex melting temperature ([3]; duplex concentration 1 µM, backbone: PO-PO (both strands phosphodiester DNA)): 64.55 ± 0.5 °C | duplex melting temperature [3, 8]: 58.38 ± 0.3 °C | duplex melting temperature [3, 9]: 50.2 ± 0.26 °C | duplex melting temperature [3, 10]: 67.76 ± 0.17 °C | duplex melting temperature [3, 11]: 60.82 ± 0.11 °C | duplex melting temperature [3, 12]: 53.07 ± 0.18 °C | duplex melting temperature [3, 13]: 69.89 ± 0.28 °C | duplex melting temperature [3, 14]: 62.71 ± 0.088 °C | duplex melting temperature [3, 15]: 55.02 ± 0.11 °C | duplex melting temperature [3, 16]: 70.97 ± 0.12 °C | duplex melting temperature [3, 17]: 63.78 ± 0.073 °C | duplex melting temperature [3, 18]: 56.02 ± 0.081 °C | duplex melting temperature [3, 19]: 71.86 ± 0.14 °C | duplex melting temperature [3, 20]: 64.547 ± 0.024 °C | duplex melting temperature [3, 21]: 56.75 ± 0.13 °C | duplex melting temperature [3, 22]: 73.04 ± 0.17 °C | duplex melting temperature [3, 23]: 65.56 ± 0.091 °C | duplex melting temperature [3, 24]: 57.63 ± 0.092 °C | duplex melting temperature [3, 25]: 73.85 ± 0.16 °C | duplex melting temperature [3, 26]: 66.343 ± 0.048 °C | duplex melting temperature [3, 27]: 58.35 ± 0.083 °C | duplex formation free energy ΔG50 [4, 5]: -13.17 ± 0.12 kcal/mol | duplex formation free energy ΔG50 [4, 6]: -11.9 ± 0.052 kcal/mol | duplex formation free energy ΔG50 [4, 7]: -9.881 ± 0.049 kcal/mol

CGGCGCGCTG
duplex melting temperature [3, 9]: 44.8 ± 1.1 °C | duplex melting temperature [3, 10]: 66.4 °C | duplex melting temperature [3, 12]: 47 ± 1.1 °C | duplex melting temperature [3, 13]: 67.7 ± 0.9 °C | duplex melting temperature [3, 14]: 64.9 ± 1.3 °C | duplex melting temperature [3, 15]: 50 ± 1.2 °C | duplex melting temperature [3, 16]: 69.25 ± 0.52 °C | duplex melting temperature [3, 17]: 66.2 ± 0.84 °C | duplex melting temperature [3, 19]: 70.35 ± 0.13 °C | duplex melting temperature [3, 20]: 67.43 ± 0.12 °C | duplex melting temperature [3, 22]: 70.84 ± 0.39 °C | duplex melting temperature [3, 23]: 68.41 ± 0.079 °C | duplex melting temperature [3, 25]: 72.07 ± 0.61 °C | duplex melting temperature [3, 26]: 69.27 ± 0.21 °C

GGACGGCGTT
duplex melting temperature [3, 9]: 39.971 ± 0.0066 °C | duplex melting temperature [3, 12]: 43 ± 0.68 °C | duplex melting temperature [3, 15]: 47.59 ± 0.14 °C | duplex melting temperature [3, 18]: 50.3 ± 1.2 °C | duplex melting temperature [3, 19]: 63.65 ± 0.51 °C | duplex melting temperature [3, 21]: 50.8 ± 1.5 °C | duplex melting temperature [3, 22]: 64.94 ± 0.51 °C | duplex melting temperature [3, 23]: 61.1 ± 0.49 °C | duplex melting temperature [3, 24]: 53.7 ± 0.47 °C | duplex melting temperature [3, 25]: 65.94 ± 0.2 °C | duplex melting temperature [3, 26]: 62.78 ± 0.33 °C | duplex melting temperature [3, 27]: 53.7 °C
